Numbering of substitutions follows the chain as printed. Entries after “also recorded” stand apart in the source; their conditions may differ. Ends that are not written are not given here. * marks the point of attachment. 125I = [125I]*
T1: Biotinylated NMDAR2B immunogen peptide (human, also: biotinylated, site not given here)
T1 construct: also called biotinylated peptide
T1 peptide: YKDAHEKDDF-NH2

T2: NMDAR2B immunogen peptide, free (YKDAHEKDDF-amide) (human)
T2 construct: Free form: no radiolabel and no further conjugation; also called free NMDAR2B immunogen peptide; free peptide
T2 peptide: YKDAHEKDDF-NH2

T3: 125I-labeled NMDAR2B immunogen peptide (human)
T3 construct: also called ^125I-labeled (radiolabel on the N-terminal tyrosine) NMDAR2B immunogen peptide
T3 peptide: Y(125I)KDAHEKDDF-NH2

B1: Fab9 (Fab, V domains shown)
VH: EVQLVESGGGLVQPGGSLRLSCAASGFNLSYSSMHWVRQAPGKGLEWVASISPYSGSTYYADSVKGRFTISADTSKNTAYLQMNSLRAEDTAVYYCARYYWYYYYGFDYWGQGTLVTVSS
VL: DIQMTQSPSSLSASVGDRVTITCRASQSVSSAVAWYQQKPGKAPKLLIYSASSLYSGVPSRFSGSRSGTDFTLTISSLQPEDFATYYCQQYVGYGSPITFGQGTKVEIK
notes: also called Ab9 (IgG form with the same VH and VL)
B2: Fab4 (Fab, V domains shown)
VH: EVQLVESGGGLVQPGGSLRLSCAASGFNLYYYSIHWVRQAPGKGLEWVAYISSYYGYTYYADSVKGRFTISADTSKNTAYLQMNSLRAEDTAVYYCARYYPGGWHAFDYWGQGTLVTVSS
VL: B1 VL with V92Y, S96Y
notes: also called Ab4 (IgG form with the same VH and VL)
B3: Fab10 (Fab, V domains shown)
VH: EVQLVESGGGLVQPGGSLRLSCAASGFNLYSSYMHWVRQAPGKGLEWVASISSSYGYTYYADSVKGRFTISADTSKNTAYLQMNSLRAEDTAVYYCARTVRGSKKPYFSGWAMDYWGQGTLVTVSS
VL: DIQMTQSPSSLSASVGDRVTITCRASQSVSSAVAWYQQKPGKAPKLLIYSASSLYSGVPSRFSGSRSGTDFTLTISSLQPEDFATYYCQQGSYLITFGQGTKVEIK
notes: also called Ab10 (IgG form with the same VH and VL)
B4: Fab5 (Fab, V domains shown)
VH: B3 VH with S52Y, G56S, Y57S
VL: B3 VL with S92A, Y93G
notes: also called Ab5 (IgG form with the same VH and VL)
B5: Fab6 (Fab, V domains shown)
VH: B3 VH with L29I, M34I
VL: B3 VL with S92G, Y93S
notes: also called Ab6 (IgG form with the same VH and VL)
B6: Fab7 (Fab, V domains shown)
VH: B3 VH with L29F, Y30S, Y33S, M34I
VL: B3 VL with Y93H
notes: also called Ab7 (IgG form with the same VH and VL)
B7: Fab8 (Fab, V domains shown)
VH: B3 VH with L29I, S31Y
VL: B3 VL with G91A
notes: also called Ab8 (IgG form with the same VH and VL)

Columns and labels:
LNCAP cells = assay: LNCAP cell viability assay (AlamarBlue); assay type: cell-based; conditions: for Effect on LNCAP cell viability: 48 hours incubation, % of fluorescence of vehicle treated cells
Protocol: LNCAP cells were plated in 96 well plates at 1-2×10^4 cells/well. The cells were incubated with PBS with glycine containing albumin (1.25 mg/ml) in the presence of different concentrations of a NMDAR receptor antagonist, MK-801 (also known as dizocilpine) or memantine, dilutions of the anti-NMDAR1 antisera described in Example 1 or anti-NMDAR1 IgG isolated from such antisera, or vehicle only. Each group was run in quadruplicate. AlamarBlue® was later added to each well following an incubation period of 48 hours, and fluorescent readings were taken with excitation at 530-560 nm and emission at 590 nm and above on a SYNERGY™ HT Multi Detection Reader to (BioTek®). Cell viability (%) was calculated as % of fluorescence of vehicle treated cells at 48 hours.

[1] = cited from earlier work
NCI H82 cells [2] = assay: In vivo treatment of NCI H82 tumors in nu/nu mice with ifenprodil
Protocol: (§1) Anti-NMDA receptor agent: ifenprodil was used as an exemplary NMDA receptor antagonist
Mouse treatment: Male nu/nu mice were injected subcutaneously with NCI H82 cells (about 10^7 cells/mouse). Tumors became obvious after 2-3 weeks and commenced growing rapidly. Animals were divided into two groups. […] The other group was treated with saline vehicle. Changes in the tumor size and body weight were recorded daily.

NCI H82 cells [3] = assay: In vivo combination treatment of NCI H82 tumors in nu/nu mice: cyclophosphamide followed by ifenprodil; conditions: cyclophosphamide 75 mg/kg body weight daily for 3 days
Protocol: Anti-cancer agent: Cyclophosphamide, an alkylating agent, was used as an exemplary anti-cancer agent.
as §1
Mouse treatment: Male nu/nu mice were injected subcutaneously with NCI H82 cells (about 10^7 cells/mouse). […] Animals were divided into two groups. […] The other group was treated with saline vehicle. Changes in the tumor size were recorded daily.

[4] = target: T1, Biotinylated NMDAR2B immunogen peptide; assay: ELISA, Fab captured on anti-human IgG, streptavidin-HRP detection
Protocol: (§2) ELISA assay: 96 well plates (ELISA Microlon 66 (Greiner Bio-one); #655061) were coated with Affinipure anti-human IgG antibodies (which bind to Fabs) (Jackson Immunoresearch Laboratories; #109-005-0060). Each well was added with a 50 μl volume containing 5 ng or 10 ng of an appropriate Fab and another […] volume containing the NMDAR2B immunogen peptide in a range of 10 μg to 10 ng, followed by incubation at 4° C. for 24-48 hours. Plates were washed, and each well was incubated with the biotinylated peptide at 100 ng/ml for 30 minutes to one hour and then with HRP-conjugated streptavidin (Thermo Industries; Product #N100) was added at 1:10,000 dilution for 30 minutes. Plates were washed and incubated with a mixture of 0.007% H₂O₂ and Amplex® Ultrared Reagent (Molecular Probes) for one hour, and fluorescence was read at excitation at 550 nm and fluorescence at 590 nm on a SYNERGY™ HT Multi Detection Reader to (BioTek®).

[5] = target: T2, NMDAR2B immunogen peptide, free …; assay: competition ELISA against peptide coupled to biotinylated BSA
Protocol: as §2
ELISA assay: ELISA as in Example 6 was performed using the NMDAR2B immunogen peptide coupled to biotinylated BSA and then, to test competition, the free NMDAR2B immunogen peptide.

[6] = target: T4, BSA-coupled NMDAR2B immunogen peptide (human; bovine, UniProt P02769 25-607, carrier, cross-linked to the peptide with glutaraldehyde; C-terminal amide; coupled to BSA with glutaraldehyde); assay: competition displacement ELISA, additional studies (FIG. 7B)
T4 construct: also called NMDAR2B immunogen peptide coupled to BSA; unlabeled BSA-coupled NMDAR2B immunogen peptide
T4 sequence (P02769 25-607 limits assumed): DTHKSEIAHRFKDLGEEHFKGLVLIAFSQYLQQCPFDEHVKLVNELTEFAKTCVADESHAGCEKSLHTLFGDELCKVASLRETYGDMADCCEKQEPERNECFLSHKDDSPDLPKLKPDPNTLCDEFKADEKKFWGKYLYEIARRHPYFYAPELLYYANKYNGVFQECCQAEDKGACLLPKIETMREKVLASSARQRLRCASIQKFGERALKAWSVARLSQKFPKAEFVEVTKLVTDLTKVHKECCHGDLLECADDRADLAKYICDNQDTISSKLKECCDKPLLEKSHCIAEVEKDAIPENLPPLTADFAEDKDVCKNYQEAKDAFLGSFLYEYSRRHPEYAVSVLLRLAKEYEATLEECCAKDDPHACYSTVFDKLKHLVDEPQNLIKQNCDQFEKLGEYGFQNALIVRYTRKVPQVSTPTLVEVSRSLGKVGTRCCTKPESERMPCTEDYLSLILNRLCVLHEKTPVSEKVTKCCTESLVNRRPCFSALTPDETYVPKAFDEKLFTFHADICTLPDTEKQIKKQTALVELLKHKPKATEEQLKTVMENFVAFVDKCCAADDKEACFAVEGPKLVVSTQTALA
Protocol: as §2
ELISA assay: ELISA as in Example 6 was performed using the NMDAR2B immunogen peptide coupled to BSA (as prepared in Example 4) and the NMDAR2B immunogen peptide coupled to biotinylated BSA (as prepared in Example 7). Competition displacement curves were generated as repeated points in quadruplicate, and dissociation constants for respective Fabs to the BSA-coupled NMDAR2B immunogen peptide were calculated.

[7] = target: T3, 125I-labeled NMDAR2B immunogen peptide; assay: radioimmunoassay with 125I-labeled and free peptide
Protocol: Radioimmunoassay: Radioimmunoassay on Fab3 through Fab10 was performed using ¹²⁵I-labeled (radiolabel on the N-terminal tyrosine) and free (no radiolabel or additional conjugation) NMDAR2B immunogen peptides.

Molecule	binding result [4]	binding result [5]	binding result [7]	also measured
C[C@]12N[C@H](Cc3ccccc31)c1ccccc12 [MK-801, dizocilpine]	–	–	–	Effect on LNCAP cell viability (LNCAP cells): reduced cell viability in a does-dependent manner; Concentration at which the reduction of cell viability was statistically significant (p<0.01) (LNCAP cells; LNCAP cells, 48 hours): > 300 pM
CC(C(O)c1ccc(O)cc1)N1CCC(Cc2ccccc2)CC1 (centres unmarked) [ifenprodil]	–	–	–	ED50 in mice [1]: about 350 mg/kg body weight; Tumor growth with ifenprodil alone (NCI H82 cells [2]; animals that only received ifenprodil but not cyclophosphamide, after a day of decrease in size): continued to grow; Time for tumors to grow back to their original size (NCI H82 cells [2]; ifenprodil 2.5 mg/kg body weight intraperitoneally once daily): about 10 days; Tumor growth relative to original size (NCI H82 cells [2]; ifenprodil 2.5 mg/kg body weight intraperitoneally once daily, by two weeks of treatment, saline controls >6 times): < 2 times their original size; Tumor size relative to original size after initial shrinkage (NCI H82 cells [2]; ifenprodil 2.5 mg/kg body weight intraperitoneally once daily, in about a day): about 80%; Body weight versus saline control (NCI H82 cells [2]; over 8 days of treatment): no differences between groups
O=P1(N(CCCl)CCCl)NCCCO1 (centres unmarked) [cyclophosphamide]	–	–	–	Effect of cyclophosphamide treatment on tumor growth (NCI H82 cells [3]): does not inhibit tumor growth beyond the time of cyclophosphamide administration; also recorded: slowed but did not stop tumor growth
CC12CC3CC(C)(C1)CC(N)(C3)C2 [memantine]	–	–	–	Effect on LNCAP cell viability (LNCAP cells): reduced cell viability in a does-dependent manner
B1	no binding	no binding	no binding	Kd [6]: ~5 nM
B2	no binding	no binding	no binding	–
B3	no binding	no binding	no binding	–
B4	no binding	no binding	no binding	–
B5	no binding	no binding	no binding	–
B6	no binding	no binding	no binding	–
B7	no binding	no binding	no binding	–

Source: US20240409643A1, “ANTI-NMDAR2B ANTIBODIES, ANTIBODY-DRUG CONJUGATES, AND CHIMERIC ANTIGEN RECEPTORS, AND COMPOSITIONS AND METHODS OF USE” (THE TRUSTEES OF DARTMOUTH COLLEGE, priority 2021, published 2024)
